Abundance fitness data for 38 variants are collected here from the Human Domainome abundance scans (Beltran et al. 2025).

± gives the uncertainty stated by the source.

The chains are these.
B1: SAM and SH3 domain-containing protein 1, residues 630 to 700; numbered along this chain, O94885 (parent)
chain: GRPPQPKSVEDLLDRINLKEHMPTFLFNGYEDLDTFKLLEEEDLDELNIRDPEHRAVLLTAVELLQEYDSN

In the series the parent is B1. Description: abundance fitness (aPCA) (normalised: wild type 0, dead -1); higher = more abundant; growth selection in yeast, the domain comes from the species named. The settings on record: Homo sapiens.
For GRPPQPKSVEDLLDRINLKEHMPTFLFNGPEDLDTFKLLEEEDLDELNIRDPEHRAVLLTAVELLQEYDSN, the abundance fitness is -0.767 ± 0.081.
In the case of GRPPQPKSVEDLLDRINLKEHMPTFLFNGNEDLDTFKLLEEEDLDELNIRDPEHRAVLLTAVELLQEYDSN, the abundance fitness was -0.833 ± 0.08.
GRPPQPKSVEDLLDRINLKEHMPTFLFNGSEDLDTFKLLEEEDLDELNIRDPEHRAVLLTAVELLQEYDSN: the abundance fitness was -0.706 ± 0.052.
To GRPPQPKSVEDLLDRINLKEHMPTFLFNGEEDLDTFKLLEEEDLDELNIRDPEHRAVLLTAVELLQEYDSN belongs -0.515 ± 0.092.
For the variant GRPPQPKSVEDLLDRINLKEHMPTFLFNGKEDLDTFKLLEEEDLDELNIRDPEHRAVLLTAVELLQEYDSN, the abundance fitness was -0.901 ± 0.099.
For the variant GRPPQPKSVEDLLDRINLKEHMPTFLFNGWEDLDTFKLLEEEDLDELNIRDPEHRAVLLTAVELLQEYDSN, the abundance fitness was -0.012 ± 0.054.
For the variant GRPPQPKSVEDLLDRINLKEHMPTFLFNGMEDLDTFKLLEEEDLDELNIRDPEHRAVLLTAVELLQEYDSN, the abundance fitness was -0.568 ± 0.074.
For the variant GRPPQPKSVEDLLDRINLKEHMPTFLFNGHEDLDTFKLLEEEDLDELNIRDPEHRAVLLTAVELLQEYDSN, the abundance fitness was -0.737 ± 0.071.
For GRPPQPKSVEDLLDRINLKEHMPTFLFNGFEDLDTFKLLEEEDLDELNIRDPEHRAVLLTAVELLQEYDSN, the abundance fitness is 0.058 ± 0.044.
In the case of GRPPQPKSVEDLLDRINLKEHMPTFLFNGGEDLDTFKLLEEEDLDELNIRDPEHRAVLLTAVELLQEYDSN, the abundance fitness is -0.987 ± 0.076.
To GRPPQPKSVEDLLDRINLKEHMPTFLFNGDEDLDTFKLLEEEDLDELNIRDPEHRAVLLTAVELLQEYDSN belongs -0.705 ± 0.077.
With GRPPQPKSVEDLLDRINLKEHMPTFLFNGLEDLDTFKLLEEEDLDELNIRDPEHRAVLLTAVELLQEYDSN, the abundance fitness is -0.557 ± 0.049.
For the variant GRPPQPKSVEDLLDRINLKEHMPTFLFNGTEDLDTFKLLEEEDLDELNIRDPEHRAVLLTAVELLQEYDSN, the abundance fitness was -0.906 ± 0.07.
As for GRPPQPKSVEDLLDRINLKEHMPTFLFNGIEDLDTFKLLEEEDLDELNIRDPEHRAVLLTAVELLQEYDSN, the abundance fitness amounted to 0.042 ± 0.043.
Regarding GRPPQPKSVEDLLDRINLKEHMPTFLFNGCEDLDTFKLLEEEDLDELNIRDPEHRAVLLTAVELLQEYDSN, the abundance fitness is -0.704 ± 0.076.
Regarding GRPPQPKSVEDLLDRINLKEHMPTFLFNGREDLDTFKLLEEEDLDELNIRDPEHRAVLLTAVELLQEYDSN, the abundance fitness was -0.891 ± 0.068.
Regarding GRPPQPKSVEDLLDRINLKEHMPTFLFNGAEDLDTFKLLEEEDLDELNIRDPEHRAVLLTAVELLQEYDSN, the abundance fitness is -0.92 ± 0.076.
Consider GRPPQPKSVEDLLDRINLKEHMPTFLFNTYEDLDTFKLLEEEDLDELNIRDPEHRAVLLTAVELLQEYDSN, for which the abundance fitness was -0.917 ± 0.073.
Consider GRPPQPKSVEDLLDRINLKEHMPTFLFNVYEDLDTFKLLEEEDLDELNIRDPEHRAVLLTAVELLQEYDSN, for which the abundance fitness was -1.17 ± 0.089.
GRPPQPKSVEDLLDRINLKEHMPTFLFNYYEDLDTFKLLEEEDLDELNIRDPEHRAVLLTAVELLQEYDSN: the abundance fitness is -0.895 ± 0.1.
The same measure for GRPPQPKSVEDLLDRINLKEHMPTFLFNMYEDLDTFKLLEEEDLDELNIRDPEHRAVLLTAVELLQEYDSN: -0.739 ± 0.089.
In the case of GRPPQPKSVEDLLDRINLKEHMPTFLFNQYEDLDTFKLLEEEDLDELNIRDPEHRAVLLTAVELLQEYDSN, the abundance fitness was -0.959 ± 0.093.
For the variant GRPPQPKSVEDLLDRINLKEHMPTFLFNCYEDLDTFKLLEEEDLDELNIRDPEHRAVLLTAVELLQEYDSN, the abundance fitness was -1.12 ± 0.13.
Turning to GRPPQPKSVEDLLDRINLKEHMPTFLFNKYEDLDTFKLLEEEDLDELNIRDPEHRAVLLTAVELLQEYDSN, the abundance fitness was -0.925 ± 0.11.
GRPPQPKSVEDLLDRINLKEHMPTFLFNWYEDLDTFKLLEEEDLDELNIRDPEHRAVLLTAVELLQEYDSN: the abundance fitness was -0.937 ± 0.11.
The same measure for GRPPQPKSVEDLLDRINLKEHMPTFLFNHYEDLDTFKLLEEEDLDELNIRDPEHRAVLLTAVELLQEYDSN: -0.831 ± 0.081.
For GRPPQPKSVEDLLDRINLKEHMPTFLFNAYEDLDTFKLLEEEDLDELNIRDPEHRAVLLTAVELLQEYDSN, the abundance fitness is -0.806 ± 0.062.
To GRPPQPKSVEDLLDRINLKEHMPTFLFNNYEDLDTFKLLEEEDLDELNIRDPEHRAVLLTAVELLQEYDSN belongs -0.762 ± 0.09.
Take GRPPQPKSVEDLLDRINLKEHMPTFLFNFYEDLDTFKLLEEEDLDELNIRDPEHRAVLLTAVELLQEYDSN: the abundance fitness was -1.2 ± 0.14.
For the variant GRPPQPKSVEDLLDRINLKEHMPTFLFNIYEDLDTFKLLEEEDLDELNIRDPEHRAVLLTAVELLQEYDSN, the abundance fitness was -0.893 ± 0.1.
Regarding GRPPQPKSVEDLLDRINLKEHMPTFLFNDYEDLDTFKLLEEEDLDELNIRDPEHRAVLLTAVELLQEYDSN, the abundance fitness is -0.837 ± 0.1.
To GRPPQPKSVEDLLDRINLKEHMPTFLFNEYEDLDTFKLLEEEDLDELNIRDPEHRAVLLTAVELLQEYDSN belongs -0.844 ± 0.1; to GRPPQPKSVEDLLDRINLKEHMPTFLFNSYEDLDTFKLLEEEDLDELNIRDPEHRAVLLTAVELLQEYDSN, -0.834 ± 0.059; to GRPPQPKSVEDLLDRINLKEHMPTFLFNPYEDLDTFKLLEEEDLDELNIRDPEHRAVLLTAVELLQEYDSN, -0.967 ± 0.08.
For GRPPQPKSVEDLLDRINLKEHMPTFLFNLYEDLDTFKLLEEEDLDELNIRDPEHRAVLLTAVELLQEYDSN, the abundance fitness is -0.907 ± 0.063.
For the variant GRPPQPKSVEDLLDRINLKEHMPTFLFYGYEDLDTFKLLEEEDLDELNIRDPEHRAVLLTAVELLQEYDSN, the abundance fitness was -0.208 ± 0.048.
The same measure for GRPPQPKSVEDLLDRINLKEHMPTFLFVGYEDLDTFKLLEEEDLDELNIRDPEHRAVLLTAVELLQEYDSN: -0.939 ± 0.076.
In the case of GRPPQPKSVEDLLDRINLKEHMPTFLFWGYEDLDTFKLLEEEDLDELNIRDPEHRAVLLTAVELLQEYDSN, the abundance fitness is -0.553 ± 0.071.
